Laboratory results from US20140140926A1.
Blank lines part the entries; values can stand above or below the binder they belong to. No end group written: not given here.

What was measured:
[1] = target: soluble hSIRP-alpha (human) (UniProt P78324); experiment: flow cytometry, biotinylated peptide on streptavidin polystyrene beads binding soluble hSIRP-alpha, saturation binding fit
[2] = target: soluble hSIRP-alpha (human) (UniProt P78324); experiment: inhibition of soluble hSIRP-alpha binding to polypeptide beads by soluble peptide

Kd [1]: 110 to 160 nM
B1: FG-peptide (21-aa, …) (peptide)
peptide: GNYTCEVTELTREGETIIELK
modifications: also: biotin via aminohexanoic acid (C6) or PEG linker, site not given here

Ki [2]: 100 to 200 nM
B2: FG-hairpin (10-aa, …) (peptide)
peptide: EVTELTREGE
modifications: synthesized without attachment of biotin
